From patent US20210292390A1, “CHIMERIC ANTIGEN RECEPTORS” (Oxford University Innovation Limited, priority 2016, published 2021) come the findings set out here.

Experiment [1] has as its target biotinylated CD6 peptide pY629 Y662 (human). Nature of the experiment: SPR (BIAcore 3000), equilibrium binding, biotinylated peptide on streptavidin CM5 chip, 15° C.
For experiment [2], the target named is biotinylated CD6 peptide pY629 pY662 (human). The experiment is described as above.
The target of experiment [3] is biotinylated CD6 peptide pY629 Y662 (human). The experiment can be described thus: SPR (BIAcore 3000), equilibrium binding, biotinylated peptide on streptavidin CM5 chip, 37° C. Background: Surface plasmon resonance follows binding to a sensor surface in real time, without labels.
Experiment [4] concerns the target biotinylated CD6 peptide pY629 pY662 (human). Described as above.
The target of a further experiment is T1, GADS (Homo sapiens, UniProt O75791).
T1 construct: endogenous in cells; host or cells: Jurkat cells
T1 sequence (O75791 1-330): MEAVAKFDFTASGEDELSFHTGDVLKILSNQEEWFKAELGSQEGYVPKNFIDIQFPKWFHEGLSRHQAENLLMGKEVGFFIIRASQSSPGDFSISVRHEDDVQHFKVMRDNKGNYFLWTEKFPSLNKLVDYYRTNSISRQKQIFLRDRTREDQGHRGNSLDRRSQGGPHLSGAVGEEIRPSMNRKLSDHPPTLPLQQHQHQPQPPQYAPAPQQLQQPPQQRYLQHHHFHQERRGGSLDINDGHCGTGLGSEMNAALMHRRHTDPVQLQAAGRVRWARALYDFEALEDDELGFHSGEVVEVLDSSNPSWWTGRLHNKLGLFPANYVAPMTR
The experiment can be described thus: Co-immunoprecipitation with CD6 constructs in Jurkat cells, Western blot. It is filed as binding. To be noted: Jurkat cells treated with Na3VO4. The source says: (§1) In FIG. 2(A) Lysate of 8×10^5 Jurkat cells treated with the phosphatase inhibitor Na3VO4 or immunoprecipitation samples of 3×10^6 cells were loaded on gels and after electrophoretic separation they were blotted on nitrocellulose membranes. The membranes were probed with the indicated antibodies and visualised using LI-COR western blotting. FIG. 2(B) illustrates Western Blot bands of three independent CD6 co-immunoprecipitations were quantified using the software ImageJ. Each co-immunoprecipitation value is divided by the intensity of the band in the lysate to compensate for differences in cell numbers used and is normalised to the intensity of EGFP in the co-immunoprecipitation divided by the intensity of EGFP in the lysate to compensate for different expression levels of the constructs. Samples were analysed using the unpaired Student t test comparing values of mutants to the VVT. n=3, error bars show the standard error of the mean, * p<0.05, ** p<0.01, ns=not significant.
In general terms: A western blot detects proteins with antibodies after separation by electrophoresis.

Another experiment addresses T2, SLP-76 (Homo sapiens, UniProt Q13094).
T2 construct: endogenous in cells; host or cells: Jurkat cells
T2 sequence (Q13094 1-533): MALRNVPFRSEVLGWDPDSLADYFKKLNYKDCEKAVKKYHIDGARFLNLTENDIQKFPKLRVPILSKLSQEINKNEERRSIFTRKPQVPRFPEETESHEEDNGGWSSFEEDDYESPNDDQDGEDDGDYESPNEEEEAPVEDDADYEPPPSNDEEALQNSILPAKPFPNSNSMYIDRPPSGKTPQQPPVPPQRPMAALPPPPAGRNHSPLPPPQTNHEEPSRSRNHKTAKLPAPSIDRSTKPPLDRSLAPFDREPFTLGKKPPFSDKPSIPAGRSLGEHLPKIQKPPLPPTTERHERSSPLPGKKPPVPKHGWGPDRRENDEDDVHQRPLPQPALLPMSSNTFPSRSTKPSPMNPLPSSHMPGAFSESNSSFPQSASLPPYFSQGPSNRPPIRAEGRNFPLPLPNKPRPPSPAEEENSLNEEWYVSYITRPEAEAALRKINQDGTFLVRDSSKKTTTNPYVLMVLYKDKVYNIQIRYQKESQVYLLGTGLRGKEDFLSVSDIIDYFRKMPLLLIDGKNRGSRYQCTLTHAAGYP
The description is as above. To be noted: Jurkat cells treated with Na3VO4. The class given is binding.
Source text: as §1

The target of experiment [5] is biotinylated CD6 peptide Y629 pY662 (human). The experiment can be described thus: SPR (BIAcore 3000), equilibrium binding, biotinylated peptide on streptavidin CM5 chip, 15° C.
The target is the same in experiment [6]. The experiment can be described thus: SPR (BIAcore 3000), equilibrium binding, biotinylated peptide on streptavidin CM5 chip, 37° C.
In a further experiment the test system is primary T cells. Nature of the experiment: Intracellular IL-2 in primary T cells after antibody stimulation. It is filed as cell-based.
The test system of a further experiment is CD4+ T cells. Nature of the experiment: Primary T cell activation by CD69 expression after CD3 and CD6 antibody stimulation. It is filed as cell-based. To be noted: CD3 antibodies and 5 μg/ml CD6 antibodies; three donors; versus untransduced cells. On the procedure: CD4+ T cells were stimulated with CD3 antibodies and 5 μg/ml CD6 antibodies to crosslink transduced CD6.

B1: recombinant GADS SH2 domain (his-tagged) (protein, UniProt O75791 58-149, looked up)
chain: WFHEGLSRHQAENLLMGKEVGFFIIRASQSSPGDFSISVRHEDDVQHFKVMRDNKGNYFLWTEKFPSLNKLVDYYRTNSISRQKQIFLRDRT
Broadly, the Kd is the free concentration of one partner at which half of the binding sites on the other are occupied at equilibrium, for simple one-to-one binding. A lower Kd goes with a tighter complex. On to B1, for which the Kd lay in the range of 150 to 620 nM in experiment [1], 140 to 2050 nM in experiment [2], 600 to 880 nM in [3] and 770 to 1580 nM in [4].

B2: CD6 Y629F: mutant form of CD6 with tyrosine Y629 substituted (protein)
chain: DQLNTSSAESELWEPGERLPVRLTNGSSSCSGTVEVRLEASWEPACGALWDSRAAEAVCRALGCGGAEAASQLAPPTPELPPPPAAGNTSVAANATLAGAPALLCSGAEWRLCEVVEHACRSDGRRARVTCAENRALRLVDGGGACAGRVEMLEHGEWGSVCDDTWDLEDAHVVCRQLGCGWAVQALPGLHFTPGRGPIHRDQVNCSGAEAYLWDCPGLPGQHYCGHKEDAGAVCSEHQSWRLTGGADRCEGQVEVHFRGVWNTVCDSEWYPSEAKVLCQSLGCGTAVERPKGLPHSLSGRMYYSCNGEELTLSNCSWRFNNSNLCSQSLAARVLCSASRSLHNLSTPEVPASVQTVTIESSVTVKIENKESRELMLLIPSIVLGILLLGSLIFIAFILLRIKGKYALPVMVNHQHLPTTIPAGSNSYQPVPITIPKEVFMLPIQVQAPPPEDSDSGSDSDYEHYDFSAQPPVALTTFYNSQRHRVTDEEVQQSRFQMPPLEEGLEELHASHIPTANPGHCITDPPSLGPQYHPRSNSESSTSSGEDYCNSPKSKLPPWNPQVFSSERSSFLEQPPNLELAGTQPAFSAGPPADDSSSTSSGEWFQNFQPPPQPPSEEQFGCPGSPSPQPDSTDNDDYDDISAA
modifications: left off: large carriers; small tags and cut ends
notes: mutant form of CD6 with tyrosine Y629 substituted
Turning to B2, the “co-immunoprecipitation of GADS” value with GADS is reported as “strongly reduced”. Besides, the “co-immunoprecipitation of SLP-76” value with SLP-76 was “strongly reduced”.

B3: CD6 Y662F: mutant form of CD6 with tyrosine Y662 substituted (protein)
chain: DQLNTSSAESELWEPGERLPVRLTNGSSSCSGTVEVRLEASWEPACGALWDSRAAEAVCRALGCGGAEAASQLAPPTPELPPPPAAGNTSVAANATLAGAPALLCSGAEWRLCEVVEHACRSDGRRARVTCAENRALRLVDGGGACAGRVEMLEHGEWGSVCDDTWDLEDAHVVCRQLGCGWAVQALPGLHFTPGRGPIHRDQVNCSGAEAYLWDCPGLPGQHYCGHKEDAGAVCSEHQSWRLTGGADRCEGQVEVHFRGVWNTVCDSEWYPSEAKVLCQSLGCGTAVERPKGLPHSLSGRMYYSCNGEELTLSNCSWRFNNSNLCSQSLAARVLCSASRSLHNLSTPEVPASVQTVTIESSVTVKIENKESRELMLLIPSIVLGILLLGSLIFIAFILLRIKGKYALPVMVNHQHLPTTIPAGSNSYQPVPITIPKEVFMLPIQVQAPPPEDSDSGSDSDYEHYDFSAQPPVALTTFYNSQRHRVTDEEVQQSRFQMPPLEEGLEELHASHIPTANPGHCITDPPSLGPQYHPRSNSESSTSSGEDYCNSPKSKLPPWNPQVFSSERSSFLEQPPNLELAGTQPAFSAGPPADDSSSTSSGEWYQNFQPPPQPPSEEQFGCPGSPSPQPDSTDNDDFDDISAA
modifications: left off: large carriers; small tags and cut ends
notes: mutant form of CD6 with tyrosine Y662 substituted
On to B3, for which the “co-immunoprecipitation of GADS” value with GADS is on record as “strongly reduced”. Besides, the “co-immunoprecipitation of SLP-76” value with SLP-76 was “strongly reduced”.

B4: recombinant SLP-76 SH2 domain (his-tagged) (protein, UniProt Q13094 422-530, looked up)
chain: WYVSYITRPEAEAALRKINQDGTFLVRDSSKKTTTNPYVLMVLYKDKVYNIQIRYQKESQVYLLGTGLRGKEDFLSVSDIIDYFRKMPLLLIDGKNRGSRYQCTLTHAA
As to B4, the Kd was 310 to 1870 nM in [5], 260 to 1820 nM in [2], 890 to 3090 nM in [6] and 620 to 2820 nM in experiment [4].

B5: CD6 Y629F Y662F: mutant form of CD6 with both tyrosine residues Y629 and Y662 substituted (protein, UniProt P30203 1-668, looked up, variant Y629F Y662F)
chain: MWLFFGITGLLTAALSGHPSPAPPDQLNTSSAESELWEPGERLPVRLTNGSSSCSGTVEVRLEASWEPACGALWDSRAAEAVCRALGCGGAEAASQLAPPTPELPPPPAAGNTSVAANATLAGAPALLCSGAEWRLCEVVEHACRSDGRRARVTCAENRALRLVDGGGACAGRVEMLEHGEWGSVCDDTWDLEDAHVVCRQLGCGWAVQALPGLHFTPGRGPIHRDQVNCSGAEAYLWDCPGLPGQHYCGHKEDAGAVCSEHQSWRLTGGADRCEGQVEVHFRGVWNTVCDSEWYPSEAKVLCQSLGCGTAVERPKGLPHSLSGRMYYSCNGEELTLSNCSWRFNNSNLCSQSLAARVLCSASRSLHNLSTPEVPASVQTVTIESSVTVKIENKESRELMLLIPSIVLGILLLGSLIFIAFILLRIKGKYALPVMVNHQHLPTTIPAGSNSYQPVPITIPKEVFMLPIQVQAPPPEDSDSGSDSDYEHYDFSAQPPVALTTFYNSQRHRVTDEEVQQSRFQMPPLEEGLEELHASHIPTANPGHCITDPPSLGPQYHPRSNSESSTSSGEDYCNSPKSKLPPWNPQVFSSERSSFLEQPPNLELAGTQPAFSAGPPADDSSSTSSGEWFQNFQPPPQPPSEEQFGCPGSPSPQPDSTDNDDFDDISAA
With B5, the “percentage of IL-2 positive cells” value in the experiment with primary T cells (CD3 antibodies but not CD6 antibodies) is reported as “did not show a significantly increased level of T cell activation”; in the experiment on primary T cells (both CD3 antibodies and CD6 antibodies, three donors), “did not show a significantly increased percentage of IL-2 positive cells”. In the experiment on CD4+ T cells, the “percentage of CD69 positive cells” value is listed as “no significant difference”. The “co-immunoprecipitation of GADS” value in the experiment with GADS is “almost no SLP-76 and GADS was detected”. The “co-immunoprecipitation of SLP-76” value in the experiment with SLP-76 was “almost no SLP-76 and GADS was detected”.
